This is an account of results in patent publication US20250243271A1 (ALCEA THERAPEUTICS, published 2025).

Test [1] has as its target T1, Recombinant human Notch4 (human, UniProt Q99466 24-1447, limits assumed).
T1 construct: also called Notch4 analyte; Notch4 (antigen)
T1 sequence: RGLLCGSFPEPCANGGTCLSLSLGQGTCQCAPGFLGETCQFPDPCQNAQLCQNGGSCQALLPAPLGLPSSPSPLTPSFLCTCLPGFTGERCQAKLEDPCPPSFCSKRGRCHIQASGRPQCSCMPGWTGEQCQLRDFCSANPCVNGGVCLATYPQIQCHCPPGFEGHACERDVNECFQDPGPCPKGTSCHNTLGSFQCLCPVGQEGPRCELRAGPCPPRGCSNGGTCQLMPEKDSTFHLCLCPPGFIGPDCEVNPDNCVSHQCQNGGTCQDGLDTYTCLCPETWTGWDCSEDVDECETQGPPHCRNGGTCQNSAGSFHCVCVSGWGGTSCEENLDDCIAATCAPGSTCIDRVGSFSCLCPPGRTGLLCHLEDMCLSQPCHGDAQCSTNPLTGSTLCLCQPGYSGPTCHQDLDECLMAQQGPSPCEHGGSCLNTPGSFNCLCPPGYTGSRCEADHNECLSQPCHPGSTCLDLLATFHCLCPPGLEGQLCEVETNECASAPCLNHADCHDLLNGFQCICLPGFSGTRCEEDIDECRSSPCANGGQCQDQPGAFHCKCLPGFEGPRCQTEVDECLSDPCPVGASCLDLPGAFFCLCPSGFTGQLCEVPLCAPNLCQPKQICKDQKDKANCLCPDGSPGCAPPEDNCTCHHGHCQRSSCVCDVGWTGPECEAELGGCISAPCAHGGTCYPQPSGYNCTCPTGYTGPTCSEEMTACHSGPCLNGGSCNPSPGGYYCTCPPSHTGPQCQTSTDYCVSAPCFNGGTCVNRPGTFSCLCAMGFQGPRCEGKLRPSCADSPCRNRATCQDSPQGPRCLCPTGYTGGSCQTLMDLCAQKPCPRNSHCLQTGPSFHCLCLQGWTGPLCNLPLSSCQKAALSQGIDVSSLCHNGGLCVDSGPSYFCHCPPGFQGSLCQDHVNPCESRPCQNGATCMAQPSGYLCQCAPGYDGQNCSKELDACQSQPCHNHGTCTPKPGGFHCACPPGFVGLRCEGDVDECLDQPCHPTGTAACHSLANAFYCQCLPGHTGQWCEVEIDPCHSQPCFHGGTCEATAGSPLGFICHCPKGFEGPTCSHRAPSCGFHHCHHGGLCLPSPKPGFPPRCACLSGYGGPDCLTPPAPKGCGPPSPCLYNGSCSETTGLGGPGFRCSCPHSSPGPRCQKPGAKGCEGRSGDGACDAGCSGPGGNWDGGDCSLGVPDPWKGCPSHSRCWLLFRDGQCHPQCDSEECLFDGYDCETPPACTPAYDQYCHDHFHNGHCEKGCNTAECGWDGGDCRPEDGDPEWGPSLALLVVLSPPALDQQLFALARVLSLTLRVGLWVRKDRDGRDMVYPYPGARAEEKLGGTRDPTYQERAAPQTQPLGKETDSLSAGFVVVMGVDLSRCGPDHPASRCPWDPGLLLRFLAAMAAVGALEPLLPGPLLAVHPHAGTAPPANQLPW
The test is described as follows: SPR, antibody captured by anti-human polyclonal Fc antibodies on CM5 chip, Notch4 as analyte at 300 nM; Table 4 SPR, Notch4 as analyte. How it is done:
(§1) Binding kinetics measurements. H07-Lib3 binding kinetics were determined using surface plasmon resonance (SPR). CM5 chips were coated with anti-human polyclonal Fc antibodies (Southern Biotech) to capture candidate antibody. Candidate antibody was diluted in HEPES-buffered saline with 0.005% surfactant P20 (HBS-P) and exposed to the surfaces for 20 minutes. […] To assess specificity, experiment was also run using Notch3 as an analyte at 300 nM.

Test [2] concerns the target T1, Recombinant human Notch4. Briefly: SPR, antibody captured by anti-human IgG Fc on HC30M chip, Notch4 as analyte. How it is done:
Binding kinetics measurements. Following expression and purification, clones were characterized using surface plasmon resonance (SPR) to determine binding kinetics and epitope binding activity. HC30M chips (polycarboxylate hydrogel surfaces having medium charge density and 30 nm coating thickness) were coated with anti-human Fc antibodies (unlabeled goat anti-human IgG Fc from Southern Biotech) to capture the candidate antibodies. Candidate antibodies were diluted to 10 μg/mL in HEPES-buffered saline Tris-EDTA (HBSTE)) and exposed to the surfaces for 15 minutes. After stabilizing baseline using HBSTE, Notch4 analytes were injected sequentially from a lowest concentration of 0.41 nM to a highest concentration of 300 nM. (Notch4 was diluted in HBSTE+0.5 mg/mL bovine serum albumin (BSA) to obtain a series of 3-fold dilutions.) To assess specificity, experiments were also run using Notch2 as an analyte in a single injection at 100 nM in HBSTE+0.5 mg/mL.

In test [3] the target is T1, Recombinant human Notch4. Briefly: SPR, antibody captured by anti-human polyclonal Fc antibodies on CM5 chip, Notch4 as analyte at 300 nM. How it is done:
as §1
Background: In SPR one partner is held on a chip, and binding of the other changes the refractive index at the surface.

Another test has as its target T2, insulin.
T2 construct: Probe of the polyreactivity assay
Briefly: polyreactivity assay, reactivity normalized to the highest value for each probe. The procedure:
(§2) Polyreactivity assays. The non-specific reactivity of H07-Lib3 was evaluated towards cardiolipin, keyhole limpet hemocyanin (KLH), lipopolysaccharides (LPS), single-stranded DNA (ssDNA), double-stranded DNA (dsDNA), insulin, and bovine serum albumin (BSA). Additional therapeutic antibodies (bococizumab, efalizumab, gantenerumab, ibalizumab, lenzilumab, and panitumumab) were included in experiments for comparison. The reactivity percentage of each antibody was normalized to the highest reactivity value for each probe. Threshold for acceptable polyreactivity was set to 30% for all probes.

For the next test, the target named is T3, bovine serum albumin (bovine, UniProt P02769 25-607).
T3 construct: Probe of the polyreactivity assay; also called BSA
T3 sequence (P02769 25-607 limits assumed): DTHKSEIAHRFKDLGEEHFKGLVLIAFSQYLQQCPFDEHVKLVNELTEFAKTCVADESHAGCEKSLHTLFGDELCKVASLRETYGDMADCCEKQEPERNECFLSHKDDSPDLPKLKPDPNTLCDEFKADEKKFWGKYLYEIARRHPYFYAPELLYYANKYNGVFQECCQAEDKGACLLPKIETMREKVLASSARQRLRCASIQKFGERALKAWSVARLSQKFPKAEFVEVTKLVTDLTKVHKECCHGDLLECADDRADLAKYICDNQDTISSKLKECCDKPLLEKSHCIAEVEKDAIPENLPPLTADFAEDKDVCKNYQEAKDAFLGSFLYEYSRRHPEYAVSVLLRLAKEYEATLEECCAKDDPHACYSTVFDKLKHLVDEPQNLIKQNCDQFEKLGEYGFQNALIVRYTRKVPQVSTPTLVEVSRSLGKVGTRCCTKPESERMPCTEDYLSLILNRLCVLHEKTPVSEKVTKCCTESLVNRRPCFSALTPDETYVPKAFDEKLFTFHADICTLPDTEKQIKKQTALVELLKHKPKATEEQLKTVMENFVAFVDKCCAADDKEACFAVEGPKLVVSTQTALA
The test is described as above. How it is done:
as §2

In test [4] the target is T4, keyhole limpet hemocyanin.
T4 construct: Probe of the polyreactivity assay; also called KLH
The description is as above. How it is done: as §2

B1: H07-Lib3-Pl1 (antibody, V domains shown)
VH: EVQLVESGGGLVQPGGSLRLSCAASGLPFSSYAMSWVRQAPGKGLELVASIGTAGDAYYPDSVKGRFTISRDNAKNSLYLQMNSLRAEDTAVYYCARVGPFWQGFAFDIWGQGTMVTVSS
VL: DIVMTQSPLSLPVTPGEPASISCRSSQSLLHSSGHNYLHWYLQKPGQSPQLLIYMTYNRASGVPDRFSGSGSGTDFTLKISRVEAEDVGVYYCLQTTHWPHTFGGGTKVEIK
notes: Tested as an antibody captured by anti-human Fc antibodies
The term Kd denotes the concentration at which binding is half-saturated. One may read the koff as the first-order rate constant of dissociation. A word on the kon: it is the second-order rate constant of association. On to B1, for which the Kd with Recombinant human Notch4 [1] amounted to 16.6 nM; with Recombinant human Notch4 [2], 1.4 nM. Further, in the test with Recombinant human Notch4 [3], the dissociation rate constant (koff) came to 0.00164 s⁻¹. Besides, in the test with Recombinant human Notch4 [3], the kon worked out at 98300 M⁻¹ s⁻¹. In addition, the normalized reactivity (with insulin; in the test with bovine serum albumin; in test [4]) was < 30% throughout.
